This data set concerns the target Vaccinia DNA topoisomerase I (Vaccinia virus, UniProt P68698 P68698:1-314). In words: covalent topoisomerase-DNA complex isolated on SP Sepharose; cleaved linker band seen after proteinase K. The settings on record: tags: Invitrogen; nicked duplex with 3' overhang. As for the experimental part: The topoisomerase-charged promoter linker was purified using an Akta-FPLC and Unicom software ver. 4.00 (Amersham). 360 μl of the linking reaction was loaded onto a 1 ml HiTrap SP Sepharose HP pre-packed column (Amersham) pre-equilibrated in buffer A (50 mM Tris-HCl pH 7.0), washed at 0.5 ml/min with 11 ml buffer A (collected in 1 ml fractions), and eluted with a 5 ml, 0-100% buffer B (50 mM Tris-HCl pH 7.0, 1M NaCl) gradient followed by 3 ml of 100% buffer B. The eluate was collected in 0.2 ml fractions.

We go through 1 molecule from US20040265863, “Methods and compositions for synthesis of nucleic acid molecules using multiple recognition sites” (Invitrogen Corporation, published 2004).

B1: T7 TOPO linker (T7topG/T7botG/TOPO-5) (dsDNA)
DNA 1: GACTCGTAATACGACTCACTATAGGGCCCTTATTCCGATAGTG
DNA 2: AGGGCCCTATAGTGAGTCGTATTACGAGTCAAAAAAAAAAAA
DNA 3: CAACACTATCGGAATA
modifications: 5'-phosphate on each oligo
Take B1: the binding result is reported as “binds”.
